# Assay results: patent US8030017B2, “Thermostable luciferases and methods of production” (Promega Corporation, priority 1997, dated 2011)
# Key:
# [1] = Robotic thermostability screen of LucPpl mutants: decrease of activity over 10 hours at screening temperature; format: physicochemical
# Description: “Enzyme stability” was determined by the rate of activity loss from cell lysates over 10 hours. In successive rounds of evolution the incubation temperature of the lysates was increased.
# To prepare luciferases having certain performance, a method for in vitro evolution of enzyme function, as described above, was employed. Briefly described, the method is a recursive process of generating random mutations and screening for desirable properties. It was originally developed primarily to increase the thermostability of luciferases, although other enzymological characteristics are also subject to optimization by the screening criteria. A slightly different strategy was used to achieve the properties described above since two related luciferases needed to be optimized concomitantly.
# The luciferases from P. plagiophthalamus have 13 cysteines, which are potentially sensitive to oxidation. This is in contrast to the commonly used firefly luciferase, which has only 4 cysteines. To remove any cysteines that may limit enzyme stability, oligonucleotide-directed mutagenesis was used to randomize the cysteine codons. Three sets of oligonucleotides were used: non-conserved cysteines in regions of low sequence homology (positions 69, 114, 160, 194, 335, and 460), non-conserved cysteines in regions of higher sequence homology (positions 127, 213, 310, and 311), and highly conserved cysteines (positions 60, 80, and 388). […]
# The random mutagenesis process was repeated using the best clone from the previous cycle of mutagenesis (Luc53-0G01). […] The discrepancy in measured activity of Luc53-0G01 in this cycle of mutagenesis compared to the previous cycle may be due to changes in the assay procedure and recalibration of the incubator temperature. It should be noted that the recorded thermostabilities from each stage of mutagenesis are calculated from robotic data using abbreviated assay procedures. The data are intended to indicate the relative stabilities of enzyme mutants when assayed in the same screen, rather than providing an accurate quantitation of thermostability.
# [2] = Assay to detect resistance to luciferase inhibitor (luciferin breakdown products); format: biochemical; details: luciferin degradation products (FIG. 61)
# Description: A 10 mM stock solution of luciferin is incubated at 50° C. in 50 mM HEPES, pH 7.8, to accelerate the production of luciferin breakdown products. At different time points an aliquot is removed and then placed at −20° C. After incubation is complete, assay reagent (100 μM Luciferin, 1 μM ATP, 50 mM HEPES, pH 7.8 and 8 mM MgSO4) is prepared with luciferin from each of the different time points and a diluted lysate is then assayed with each assay reagent.
# The lysate is prepared as follows. Overnight cultures of clones to be tested are prepared in LB supplemented with 100 μg/ml AMP. The cultures are diluted 1:10 in M-9 minimal media supplemented with 1 mM IPTG, 100 μg/ml AMP and grown for 3 hours at 30° C. Forty-five μl of cells is mixed with 20 μl of Buffer A and frozen. The mixture is thawed, 175 μl of Buffer B added, and the resulting mixture diluted 1:10 in Buffer C. A regression of luminescence versus time of luciferin incubation is then calculated, and from this graph half-life is extrapolated. A longer half-life means that the mutant being tested is more resistant to luciferin breakdown products.
# [3] = Retention of luminescence activity at pH 4.5 and 48° C.; format: physicochemical; details: for thermostability relative to Luc90-1B5: pH 4.5 and 48° C.; for half-life: pH 4.5 and 48° C. (FIG. 54B)
# Description: Three populations of random mutants were produced using clone Luc90-1B5 as a template. These three populations were screened on the robot as experiments 114, 115, and 117. […] These screening conditions were biased to select clones that have increased retention of luminescence activity over time at pH 4.5 at 48° C. and increased luminescence activity when assayed at pH 7.1 with 10 μM ATP. Seventeen clones from experiment 114, seven clones from experiment 115, and ten clones from experiment 116 were shuffled together using sPCR and selected mutants from this screen were run on the robot as experiment 117. Eighteen clones were selected from experiment 117.
# [4] = Michaelis-Menten constant for ATP of purified mutants; format: biochemical; details: purified enzyme
# Description: (§1) Substrate binding was screened by measuring an apparent composite Km (see Example 2) for luciferin and ATP. […] The Km for luciferin rose while the Km for ATP declined (Table 3). The reason for this change is unknown, although it can be speculated that more efficient release of oxyluciferin or luciferin inhibitors could lead to more rapid enzyme turnover.
# (§2) Protein purification: Four mutants that are described herein (Luc[T249M], Luc49-7C6, Luc78-0B10, and Luc90-1B5) were purified using a previously published procedure (Hastings et al., 1996).
# [5] = Michaelis-Menten constant for luciferin of purified mutants; format: biochemical; details: purified enzyme
# Description: as §1, §2
# [6] = Thermostability (half-life, retained activity) of luciferases incubated in aqueous solution at different temperatures; format: physicochemical; details: purified enzyme
# Description: As defined herein, a “thermostable” enzyme, e.g., a luciferase, or an enzyme which has “thermostability”, is an enzyme which under certain conditions, e.g., at certain temperature, in aqueous solution and/or for certain periods of time, has an increased retention of activity relative to a reference enzyme. For example, for a thermostable luciferase, a reference luciferase may be native wild-type luciferase or recombinant wild-type luciferase. Preferably, for beetle luciferases, the activity is luminescence under conditions of saturation with luciferin and ATP. One measure of thermostability of an enzyme is the half-life of the enzyme in an aqueous solution (the time over which 50% of the activity is lost) at a stated temperature.
# as §2
# […] Enzyme stability was determined from diluted proteins incubated at different temperatures, and aliquots were removed at different time points. A linear regression of the natural log of the luminescence and time was calculated. Half-life was calculated as the 1n(0.5)/slope of the regression.
# colonies of E. coli = assay: In vivo luminescence of recombinant colonies of E. coli (visual screen); format: cell-based
# Description: Five to seven nitrocellulose disks having 200-500 colonies per disk (1000-3500 colonies total) are screened per 2 microplates (176 clones) (Wood and DeLuca, 1987). The clones are screened at high temperatures using standard screening conditions.
# Screening method: In the qualitative visual screen, colonies were selected only for their ability to sustain relatively bright luminescence. The thermal stability of the luciferase within the colonies of E. coli was progressively challenged in successive rounds of evolution by increasing the temperature of the screen. The selected colonies were inoculated into wells of 96-well plates each containing 200 μl of growth medium.
# JM109 clones (from a transformation reaction) are plated onto nitrocellulose filters placed on LB amp plates at a screening density of about 500 colonies per plate.
# The nitrocellulose filter is lifted on one side and 500 μl of 10 mM IPTG is added to each of the plates. The filter is then placed back onto the plate to allow diffusion of the IPTG into the colonies containing the different mutant luciferase genes. The plates are then incubated for about 4 hours at room temperature.
# One (1) ml of a solution contains 1 mM luciferin and 100 mM sodium citrate is pipetted onto a slide warmer that is set at 50° C. […]
molecule,measurement,setting,value
"Luc30-4B02: LucPplYG mutant, first cycle of random mutagenesis (protein, Mutant luciferase, LucPplYG mutant, first cycle of random mutagenesis) MMKREKNVIYGPEPLHPLEDLTAGEMLFRALRKHSHLPQALVDVVGDESLSYKEFFEATVLLAQSLHNCGYKMNDVVSICAENNTRFFIPVIAAWYIGMIVAPVNESYIPDELCKVMGISKPQIVFTTKNILNKVLEVQSRTNFIKRIIVLDTVENIHGCESLPNFISRYSDGNIANFKPLHFDPVEQVAAILCSSGTTGLPKGVMQTHQNICVRLIHALDPRAGTQLIPGVTVLVYLPFFHAFGFSITLGYFMVGLRVIMSRRFDPEAFLKAIQDYEVRSVINVPSVILFLSKSPLVDKYDLSSLRELCCGAAPLAKEVAEVAAKRLNLPGIRCGFGLTESTSANIHSLRDEFKPGSLGRVTPLMAAKIADRETGKALGPNQVGELCIKGPMVSKGYVNNVEATKEAIDDDGWLHSGDFGYYDEDEHFYVVDRYKELIKYKGSQVAPAELEEILLKNPCIRDVAVVGIPDLEAGELPSAFVVKQPGKEITAKEVYDYLAERVSHTKYLRGGVRFVDSIPRNVTGKITRKELLKQLLEKAGG",decrease of activity over 10 hours,[1]; 41° C.,63 fold
same,decrease of activity,[1]; 42° C.,greater than 2000 fold
"Luc133-1B2: mutant luciferase, SEQ ID NO:44 (protein, Mutant luciferase) MADKNILYGPEPFYPLEDGTAGEQMFDALSRYADIPGCIALTNAHTKENVLYEEFLKLSCRLAESFKKYGLKQNDTIAVCSENSLQFFLPVIASLYLGIIVAPVNDKYIERELIHSLGIVKPRIVFCSKNTFQKVLNVKSKLKSIETIIILDLNDDLGGYQCLNNFISQNSDSNLDVKKFKPYSFNRDDQVALIMFSSGTTGLPKGVMLTHKNIVARFSIAKDPTFGNAINPTSAILTVIPFHHGFGMMTTLGYFTCGFRVVLMHTFEEKLFLQSLQDYKVESTLLVPTLMAFLAKSALVEKYDLSHLKEIASGGAPLSKEIGEMVKKRFKLNFVRQGYGLTETTSAVLITPKGDAKPGSTGKIVPFHAVKVVDPTTGKILGPNEPGELYFKGPMIMKGYYNNEEATKAIIDNDGWLRSGDIAYYDNDGHFYIVDRLKSLIKYKGYQVAPAEIEGILLQHPYIVDAGVTGIPDEAAGELPAAGVVVQTGKYLNEQIVQDYVASQVSTAKWLRGGVIFLDEIPKGSTGKIDRKVLRQMLEKHTNG",resistance to inhibitor relative to Luc90-1B5,[2],increased resistance to inhibitor
same,thermostability relative to Luc90-1B5,[3],increased thermostability
same,half-life,[3],about 20 minutes
"Luc146-1H2: mutant luciferase, SEQ ID NO:45 (protein, Mutant luciferase) MADKNILYGPEPFYPLEDGTAGEQMFDALSRYAAIPGCIALTNAHTKENVLYEEFLKLSCRLAESFKKYGLKQNDTIAVCSENSLQFFLPVIASLYLGIIVAPVNDKYIERELIHSLGIVKPRIVFCSKNTFQKVLNVKSKLKSIETIIILDLNEDLGGYQCLNNFISQNSDSNLDVKKFKPYSFNRDDQVASIMFSSGTTGLPKGVMLTHKNIVARFSIAKDPTFGNAINPTSAILTVIPFHHGFGMMTTLGYFTCGFRVVLMHTFEEKLFLQSLQDYKVESTLLVPTLMAFLAKSALVEKYDLSHLKEIASGGAPLSKEIGEMVKKRFKLNFVRQGYGLTETTSAVLITPKGDAKPGSTGKIVPLHAVKVVDPTTGKILGPNEPGELYFKGPMIMKGYYNNEEATKAIIDNDGWLRSGDIAYYDNDGHFYIVDRLKSLIKYKGYQVAPAEIEGILLQHPYIVDAGVTGIPDEAAGELPAAGVVVQTGKYLNEQIVQDYVASQVSTAKWLRGGVKFLDEIPKGSTGKIDRKVLRQMLEKHTNG",resistance to inhibitor relative to Luc90-1B5,[2],increased resistance to inhibitor
same,thermostability relative to Luc90-1B5,[3],increased thermostability
same,half-life,[3],about 62 minutes
"LucPpe2[T249M]: LucPpe2 firefly luciferase (Photuris pennsylvanica) with mutation Thr to Met at residue 249, SEQ ID NO:25 (protein, Mutant luciferase) MEDKNILYGPEPFYPLADGTAGEQMFYALSRYADISGCIALTNAHTKENVLYEEFLKLSCRLAESFKKYGLKQNDTIAVCSENGLQFFLPLIASLYLGIIAAPVSDKYIERELIHSLGIVKPRIIFCSKNTFQKVLNVKSKLKYVETIIILDLNEDLGGYQCLNNFISQNSDINLDVKKFKPNSFNRDDQVALVMFSSGTTGVSKGVMLTHKNIVARFSHCKDPTFGNAINPTTAILTVIPFHHGFGMMTTLGYFTCGFRVALMHTFEEKLFLQSLQDYKVESTLLVPTLMAFFAKSALVEKYDLSHLKEIASGGAPLSKEIGEMVKKRFKLNFVRQGYGLTETTSAVLITPDTDVRPGSTGKIVPFHAVKVVDPTTGKILGPNETGELYFKGDMIMKGYYNNEEATKAIINKDGWLRSGDIAYYDNDGHFYIVDRLKSLIKYKGYQVAPAEIEGILLQHPYIVDAGVTGIPDEAAGELPAAGVVVQTGKYLNEQIVQNFVSSQVSTAKWLRGGVKFLDEIPKGSTGKIDRKVLRQMFEKHKSKL",Km,[4],18 µM
same,Km,[5],0.32 µM
same,Thermostability Of Luciferase Activity (Half-Life In Hours),[6]; 37° C.,35.4 min
same,Thermostability Of Luciferase Activity (Half-Life In Hours),[6]; 50° C.,0.6 min
same,Thermostability Of Luciferase Activity (Half-Life In Hours),[6]; Room Temperature (about 25° C.),6600 min
same,"light produced in vivo when expressed in E. coli, relative to LucPpe2",colonies of E. coli,approximately 5 fold
